Measured values: publication PMC2118908

Biological target: gp41 of HIV-1/IIIB virions (virus stock, culture supernatant) (HIV-1 (isolate IIIB)) (UniProt P04578)
Assay: SEC + ELISA

Which percent of total gp120 virion bound (virus + sCD4) does the source give for “gp120 of HIV-1/IIIB virions (virus stock, culture supernatant) (from UniProt P04578 33-511) (natural protein)” here?
The percent of total gp120 virion bound (virus + sCD4) was 24%.

What about the percent of total gp120 virion bound (virus + sCD4 + thrombin) of the same substance?
The percent of total gp120 virion bound (virus + sCD4 + thrombin) was 18%.

What about the percent of total gp120 virion bound (virus + thrombin + sCD4) of the same substance?
Its percent of total gp120 virion bound (virus + thrombin + sCD4) is 20%.

And the percent of total gp120 virion bound (virus + thrombin)?
Its percent of total gp120 virion bound (virus + thrombin) is 59%.

What about the percent of total gp120 virion bound (virus alone) of the same substance?
The percent of total gp120 virion bound (virus alone) was 57%.

What about the percent of total gp120 virion-bound (virus stock) of the same substance?
The percent of total gp120 virion-bound (virus stock) was 55%.

And the reduction of virion bound gp120 after 10 h at 4C with sCD4?
Its reduction of virion bound gp120 after 10 h at 4C with sCD4 is 10%.
